Laboratory results as given in article PMC4877382.

Assays:
[1] = tested on: FIS (Escherichia coli); test: EMSA; conditions: EMSA: 10 mM Tris-HCl pH 8, 10 mM MgCl2, 100 mM NaCl, 10 mM KCl, 1 mM spermidine, 0.5 mM DTT, 5% glycerol, 0.08 mg/ml BSA, 50 ng poly dI-dC, 25 C, 15 min …
[2] = tested on: H-NS (Escherichia coli); test: EMSA; conditions: EMSA: 10 mM Tris-HCl pH 8, 10 mM MgCl2, 100 mM NaCl, 10 mM KCl, 1 mM spermidine, 0.5 mM DTT, 5% glycerol, 0.08 mg/ml BSA, 50 ng poly dI-dC, 25 C, 15 min …

Substance: cspA promoter 310 bp fragment
- binding signal [1]: 7 nM
- binding signal [2]: 520 nM
